# Test results as given in US20040202659A1 (ASAT AG APPLIED SCIENCE AND TECHNOLOGY, published 2004).
# B1: AI-B18 (Fab, V domains shown)
# VH: QVKLLESGAEVKKPGSSVMVSCKASGGTFSSHTISWVRQAPGQGLEWMGGITPIFGTVNYAQKFQGRVTITADEPTSTAYMELRSLTSDDSGIYYCAREDGTTVPSQPLEFWGQGTRVTVSS
# notes: phab; also called A1-B18
# B2: AI-B40 (Fab, V domains shown)
# VH: B1 VH
# notes: phab; also called A1-B40
# B3: AI-B34 (Fab, V domains shown)
# VH: B1 VH
# notes: phab; also called A1-B34
# B4: AI-B14 (Fab, V domains shown)
# VH: QVKLLESGGGVVQPGRSLRLSCAASGFTFSDYGMHWVRQAPGKGLEWVAAISYDGSNKYYADSVKGRFSISRDNSNNTLYLQMSTLRAEDTAVYFCARDSETAIAAAGRFDIWGQGTMVTVSS
# notes: phab; also called A1-B14; AI-14
# B5: AI-B17 (Fab, V domains shown)
# VH: B4 VH
# notes: phab; also called A1-B17
# B6: AI-B24 (Fab, V domains shown)
# VH: QVKLLESGGGLVQPGGSLRLSCSASGFTFNKYAIHWVRQAPGKGLEYVSAISSNGGNTYYADSVKGRFTISRDNSKNTVYLQMSSLRAEDTAVYYCVRGSGSYLGYYFDYWGQGTLVTVSS
# VL: VVTQPPSVSVAPRQTATITCGGYKIGSKSVHWYQQKPGQAPVLVVYEDSYRPSEIPERFSGSNSGNMATLTITGVEAGDEADYYCQVWDNTNDQTIFGGGTKLTVLR
# notes: phab; also called A1-B24
# B7: AI-B38 (Fab, V domains shown)
# VH: QVKLLESGAEVKKPGASVKVSCKVSGYTLTELSMHWVRQAPGKGLEWMGGFDPEDGETIYAQKFQGRVTMTEDTSTDTAYMELSSLRSEDTAVYYCETGLRSYNYGRNLDYWGQGTLVTVSS
# notes: phab; also called A1-B38
# Target: T1, PDG-A
# T1 construct: lambda light chain; also called Group A phab clones; Group A autoantibody phab clones
# Experiment: specificity assay
# T1 sequence (VH, as listed by the source, chain 1 of 2): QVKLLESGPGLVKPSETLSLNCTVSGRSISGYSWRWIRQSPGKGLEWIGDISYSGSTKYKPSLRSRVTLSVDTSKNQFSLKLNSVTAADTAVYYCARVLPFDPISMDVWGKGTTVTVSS
# T1 sequence (VL, as listed by the source, chain 2 of 2): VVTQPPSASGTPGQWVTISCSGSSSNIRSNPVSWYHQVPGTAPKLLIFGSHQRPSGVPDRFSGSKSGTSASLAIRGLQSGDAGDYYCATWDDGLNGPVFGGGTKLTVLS
row,Binder,binding result
1,B1,no binding
2,B2,no binding
3,B3,no binding
4,B4,no binding
5,B5,no binding
6,B6,no binding
7,B7,no binding

# Target: T2, PDG-B
# T2 construct: human anti-GPIIb/IIIa Fab, as phab or as biotinylated recombinant Fab; lambda light chain; also called Group B phab clones; Group B antibody phab clones
# Experiment: specificity assay
row,Binder,binding result
1,B4,binds
2,B5,binds

# Target: T2, PDG-B
# Experiment: flow cytometry, biotinylated PDG-B on platelets with AI-B phab
# Protocol: This was determined by means of flow-cytometric analysis. […] 10,000 events were counted in a FACScan appliance and the mean value of the fluorescence (±SD) was recorded.
row,Binder,inhibition of the binding of PDG-B to platelets [%]
1,B1,> 60
2,B6,> 60
3,B7,> 60
